Self-cleavage data for 167 variants are collected here from the RNAGym collection of RNA variant scans (doi:10.7554/elife.90254).

B1: OR4K15 (parent)
chain: GUUAACGGUCAUAGGCCAUGGAAACUAGGAGCACCAUUUCGCUGCCAGUGAAGAAAUGAACAAAGAAAAUCUGGGCCAGGCAGGCAUCAAAAGAAAUAGUCUUGCGCUCAACCAGAAAGUCUGUAAUCAUUUUAAGGGUA

In this series the parent is B1. Kind of series: self-cleavage, relative activity (ratio to wild type); higher = more cleavage; in vitro, sequencing; the parent is a self-cleaving ribozyme.
Consider A51G A94U, for which the self-cleavage turned out to be 1.78.
The same measure for A51C: 1.43.
To A51G belongs 1.36; to U49A A140G, 1.41; to U49G A69G, 0.88.
The same measure for G50A A60C: 1.9.
With U49G A90G, the self-cleavage was 0.75.
To U49G belongs 1.13; to U49C, 1.12; to G50A, 1.68.
To G50C belongs 1.54.
To G50U belongs 1.11.
With U49A G75C, the self-cleavage is 0.07.
To U49G U139C belongs 1.49; to U49G U139G, 1.58.
To U49G U139A belongs 1.7; to G50A A63G, 1.21.
Regarding A51G A68G, the self-cleavage came to 0.71.
The same measure for A51G A68C: 1.46; for A51G A68U: 1.9.
To U49C U72A belongs 0.15; to U49C A63G, 1.75; to A51G A62C, 1.58.
The same measure for A51G A62G: 0.33.
On to G50A A52G, for which the self-cleavage was determined as 2.63.
To A51C U131C belongs 1.28.
The same measure for A51G A55C: 0.42.
To U49C A86G belongs 1.03; to U49C A86U, 1.68; to U49A U131C, 1.01.
U49C A140G: the self-cleavage amounted to 2.12.
In the case of A51G A54U, the self-cleavage stood at 1.4.
The same measure for A51C U124C: 0.98.
To U49C A135U belongs 2.28; to G50A G104A, 0.1; to A51G A64G, 1.42.
To A51G A64U belongs 1.75.
Consider U49G A116G, for which the self-cleavage came to 0.64.
To A51G A56G belongs 1.22; to U49A U57C, 1.11; to U49A U57G, 0.46.
To U49C U70A belongs 1.1; to U49A U108C, 0.01; to U49A U108A, 0.02.
U49A U87C: the self-cleavage turned out to be 0.22.
The same measure for U49A U87A: 1.78; for U49C A111G: 0.02; for U49C A67G: 1.2.
The same measure for U49A A129G: 0.63; for U49C A134U: 1.2.
To A51G A66G belongs 1.5; to U49C U97A, 2.12; to U49C U130A, 0.28.
For U49A U70C, the self-cleavage came out at 0.3.
On to A51G A86U, for which the self-cleavage amounted to 1.56.
For the variant A51G A86C, the self-cleavage came to 0.65.
To U49C U57A belongs 1.03.
The same measure for U49C U57C: 0.57; for U49C A82G: 0.42.
On to U49C A82U, for which the self-cleavage came to 0.2.
To U49C C109U belongs 0.18.
To U49C C128A belongs 1.11.
To U49A U72G belongs 0.14; to U49C G79A, 0.13.
U49A U122C: the self-cleavage was 0.56.
To U49A U122A belongs 1.32; to U49G U132C, 1.1.
To A51G A67G belongs 1.07; to U49C U122G, 1.54; to U49C U122A, 1.33.
The same measure for U49C A59C: 0.9; for U49C A59G: 0.7; for U49C A59U: 1.24.
In the case of A51C U72A, the self-cleavage was determined as 0.19.
To A51C A67G belongs 0.66; to U49A C61U, 1.38.
For the variant U49C A62G, the self-cleavage amounted to 1.57.
Consider G50U A66U, for which the self-cleavage worked out at 2.16.
On to U49G A60G, for which the self-cleavage was 0.64.
To U49G U122A belongs 1.35; to U49G U122C, 0.39; to U49A G79A, 0.12.
The same measure for U49C A95G: 1; for U49C A68U: 1.95.
The same measure for U49C A68C: 1.29; for U49A A114G: 0.25; for G50A G138A: 1.51.
With A51C A95G, the self-cleavage came to 1.65.
The same measure for A51C A95U: 1.79; for U49C A66G: 1.55.
As to U49C A64G, the self-cleavage was 2.02.
Turning to U49C C121G, the self-cleavage was 2.4.
The same measure for G50U A51U: 1.95; for A51C A52G: 1.83; for U49C C76U: 0.07.
Consider U49G U102C, for which the self-cleavage came to 1.95.
The same measure for U49C A51U: 0.99.
To U49C A51C belongs 0.34; to U49C A51G, 0.9; to U49C U87A, 2.09.
Consider U49A A118U, for which the self-cleavage came to 0.7.
To A51G A78G belongs 0.2; to G50U U124A, 0.91.
To A51C A117U belongs 1.28.
To U49G A118G belongs 1.14.
On to U49G A66G, for which the self-cleavage was 1.77.
To U49C A94G belongs 1.44.
On to A51C A78G, for which the self-cleavage worked out at 0.24.
Consider A51G A91U, for which the self-cleavage stood at 1.61.
The same measure for U49C G138A: 1.86; for U49C A60G: 1.24; for U49C U103A: 0.71.
The same measure for G50A U108A: 0.01; for U49G A68G: 1.76; for G50A A117G: 1.92.
The same measure for U49C A90G: 0.94.
Take A51G A60G: the self-cleavage is 1.2.
Consider U49G U108C, for which the self-cleavage was found to be 0.01.
To U49C U124C belongs 0.71; to U49A U102A, 0.95.
On to U49C U108A, for which the self-cleavage was determined as 0.01.
With U49C A114C, the self-cleavage was found to be 0.03.
To U49C A114G belongs 0.42.
The same measure for U49C A52G: 1.16.
The same measure for U49G A92G: 0.7.
On to U49A A116G, for which the self-cleavage came to 0.3.
To A51C U57G belongs 1.26.
Regarding U49C U132A, the self-cleavage came out at 1.65.
To U49C A126G belongs 1.26; to U49C A89G, 1.26.
The same measure for U49C A89C: 1.36; for U49C G74A: 0.09.
The same measure for U49C A56G: 1.57; for U49C A56C: 1.25; for G50U A114U: 0.08.
For U49C U139A, the self-cleavage was 1.15.
In the case of G50A U87A, the self-cleavage was found to be 1.75.
To U49G A54G belongs 1.61; to U49A A111G, 0.01.
On to U49A A111C, for which the self-cleavage is 0.01.
The same measure for U49A A126U: 1.59; for A51G A59U: 1.74; for A51G A89G: 0.95.
The same measure for A51G A89U: 1.41; for U49A G74A: 0.24.
To U49C G137A belongs 1.95; to U49C G137U, 2.29.
For U49A A117G, the self-cleavage stood at 0.49.
To G50C A116G belongs 0.9.
The same measure for U49C U120A: 1.64; for U49C U120C: 0.52.
To G50A U133C belongs 1.88; to U49C G75A, 0.04; to U49C A118U, 0.62.
As for U49C A118G, the self-cleavage was determined as 0.35.
The same measure for U49G A114G: 0.06; for G50U A116G: 0.75; for U49C G119A: 1.6.
To U49C A129G belongs 1.82; to U49A A135G, 1.08.
To U49C C105A belongs 0.03.
U49A U139C: the self-cleavage was determined as 1.97.
The same measure for A51C G99A: 0.94; for U49C G104A: 0.04.
The same measure for U49C A55U: 1.67.
As to A51C U127C, the self-cleavage worked out at 1.02.
To A51C U127A belongs 2.59.
